According to patent US20210101992A1 (KIRA BIOTECH, published 2021):
Residue numbers refer to the chain shown, from its start.

T1: CD83-His (ectodomain of human CD83 with 6x Histidine tag) (human, UniProt Q01151 20-144)
T1 construct: extracellular domain; Expressed in mammalian cells; also called hCD83-His; recombinant CD83-His; not shown: 6x Histidine tag
T1 sequence (looked up): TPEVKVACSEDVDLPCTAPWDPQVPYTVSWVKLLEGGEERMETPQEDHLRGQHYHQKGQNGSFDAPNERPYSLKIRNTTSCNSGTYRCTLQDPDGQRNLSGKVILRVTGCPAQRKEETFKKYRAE

T2: CD83-Fc (human CD83 ectodomain, Fc tagged) (human, UniProt Q01151 20-144)
T2 construct: extracellular domain; The construct is not described beyond 'hCD83 ectodomain (Fc and His tagged)'; also called hCD83-Fc; not shown: Fc tag
T2 sequence (looked up): T1 sequence (looked up)

B1: hFab 1F7 (Fab, V domains shown)
VH: EVQLVQSGGAVVQPGRSLRLSCAASGFTFSTYGMHWVRQAPGKGLEWVAAVSYDGSNKYYADFVKGRFTISRDNPKNTLYLQMNSLRADDTAVYYCARRGGLDIWGQGTTVTVSS
VL: LTQPPPASGTPGQRVTISCSGSSSNIGSNTVNWYQQLPGTAPKLLIYGNDQRPSGVPDRFSASKSGTSASLAISGLQSEDEAHYYCAAWDGSLNGGVIFGGGTKVTLG
notes: Human Fab from a phage display library; The heavy chain carries a 6x His tag and a myc tag, and the light chain was detected as kappa; also called 1F7 hFab; 1F7 Fab
B2: hFab4.1 (Fab, V domains shown)
VH: B1 VH
VL: VTQPPSASGTPGQRVTISCSGSSSNIGTNPVNWYQQLPGTAPKLLIYTTDQRPSGVPDRFSGSKSGTSASLAISGLQSEDEADYYCAAWDDSLSGLYVFGTGTKVTVLG
notes: Light chain shuffled variant of 1F7
B3: hFab4.2 (Fab, V domains shown)
VH: B1 VH
VL: MTHTPLSLSVTPGQPASISCKSSQSLLHSDGKTYLYWYLQRPGQSPQPLIYEVSNRFSGVPDRFSGSGSGTDFTLKISRVEAEDVGVYYCMQSLQLWTFGQGTKVEIKR
notes: as for B2
B4: hFab4.5 (Fab, V domains shown)
VH: B1 VH
VL: LTQSPLSLPVTLGQPASISCKSSQSLVDSDGNTYLNWFQQRPGQSPRRLIYKVSNRDSGVPDRFSGSGSGTDFTLKISRVEAEDVGVYYCMQGTHWPRTFGQGTKVEIKR
notes: Light chain shuffled variant of 1F7, expressed as hFab in the E. coli periplasm
B5: hFab4.3 (Fab, V domains shown)
VH: B1 VH
VL: B4 VL with L1M, K21R, V27I, D28H, N36D, K76R, V85I, G93A
notes: as for B2
B6: hFab4.4 (Fab, V domains shown)
VH: B1 VH
VL: B4 VL with L1M, K21R, D30A, Y34F, N36H, Q39H
notes: as for B4
B7: hFab4.7 (Fab, V domains shown)
VH: B1 VH
VL: B4 VL with L1M, K21R, D28H, T33M, G93A, H95Q, W96P, P97T, R98W, V106L
notes: as for B2
B8: hFab4.18 (Fab, V domains shown)
VH: B1 VH
VL: B4 VL with S23N, D28H, S78N, H95Q, V106L, E107D
notes: as for B2
B9: hFab4.8 (Fab, V domains shown)
VH: B1 VH
VL: MTQSPSSLSASVGDRVTITCQASQDISNYLNWYQQKPGKAPKLLIYDASNLETGVPSRFSGSGSGTDFTFTISSLQPDDFATYYCQQTYSWPRTFGQGTKLEIKR
notes: as for B4
B10: hFab4.9 (Fab, V domains shown)
VH: B1 VH
VL: MTQSPSSLSASVGHPVTITCRASQSLISYLNWYHQKPGKAPKLLIYAASILQSGVPSRFSGSGSGTDFTLTISSLQPENFASYYCQHTDSFPRTFGHGTKVEIKR
notes: as for B2
B11: hFab4.10 (Fab, V domains shown)
VH: B1 VH
VL: LTQPPSASGTPGQGVTISCRGSTSNIGNNVVNWYQHVPGSAPKLLIWSNIQRPSGIPDRFSGSKSGTSASLAISGLQSEDEAVYYCAVWDDGLAGWVFGGGTTVTVLS
notes: as for B2
B12: hFab4.12 (Fab, V domains shown)
VH: B1 VH
VL: MTQAPVVSVALEQTVRITCQGDSLAIYYDFWYQHKPGQAPVLVIYGKNNRPSGIPHRFSGSSSNTDSLTITGAQAEDEADYYCNSRDSSGNHWVFGGGTNLTVLG
notes: as for B2

Assays:
[1] = target: T1, CD83-His (ectodomain of human CD83 with …); assay: ELISA on coated CD83-His, detection with anti-kappa-HRP antibody, absorbance at 450 nm
Protocol: The reactivity of purified hFab 1F7 to CD83 was analysed by ELISA.

[2] = target: BSA (Bos taurus, UniProt P02769); assay: ELISA on coated antigens, absorbance at 450 nm
Sequence of BSA (P02769 25-607 limits assumed): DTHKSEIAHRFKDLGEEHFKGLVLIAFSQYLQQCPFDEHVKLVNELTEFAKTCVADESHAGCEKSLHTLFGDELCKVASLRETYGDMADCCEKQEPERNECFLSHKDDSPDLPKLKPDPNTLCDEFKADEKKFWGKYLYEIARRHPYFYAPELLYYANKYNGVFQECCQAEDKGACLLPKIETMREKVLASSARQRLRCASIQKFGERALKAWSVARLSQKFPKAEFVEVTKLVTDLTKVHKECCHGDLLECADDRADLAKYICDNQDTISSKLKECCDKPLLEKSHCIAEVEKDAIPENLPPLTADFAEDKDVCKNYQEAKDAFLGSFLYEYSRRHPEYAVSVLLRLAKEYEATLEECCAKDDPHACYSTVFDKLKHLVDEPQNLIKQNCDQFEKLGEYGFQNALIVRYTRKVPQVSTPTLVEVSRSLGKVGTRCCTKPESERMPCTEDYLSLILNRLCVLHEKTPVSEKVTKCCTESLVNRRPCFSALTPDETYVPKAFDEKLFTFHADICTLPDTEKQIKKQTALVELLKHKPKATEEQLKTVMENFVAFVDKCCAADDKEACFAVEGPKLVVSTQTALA

[3] = target: T1, CD83-His (ectodomain of human CD83 with …); assay: relative binding of light chain shuffled clones against 1F7; CD83 construct not given
[4] = target: T2, CD83-Fc (human CD83 ectodomain, Fc …); assay: binding of periplasmic hFab's to CD83-Fc, normalised to binding to 9E10

Row | Binder | binding result [3] | also measured
1 | B1 | – | EC50 (read off the curve) [1]: ~2 µg/mL; binding result [2]: no binding
2 | B2 | binds | –
3 | B3 | binds | –
4 | B4 | binds | binding result [4]: binds
5 | B5 | binds | –
6 | B6 | binds | binding result [4]: binds
7 | B7 | binds | –
8 | B8 | binds | –
9 | B9 | binds | binding result [4]: binds
10 | B10 | binds | –
11 | B11 | binds | –
12 | B12 | binds | –
